The record followed here is the FLAb antibody collection (doi:10.1101/2023.12.08.570889).

Residue numbers refer to the chain shown, from its start.

B1: unnamed (protein)
chain 1: QVQLVQSGAEVKKPGASVKVSCKASGYSFTSSWIHWVKQAPGQGLEWMGEINPGNVRTNYNENFRNKVTMTVDTSISTAYMELSRLRSDDTAVYYCTRVVYGEPYFDYWGQGTLVTVSS
chain 2: QIVLTQSPGTLSLSPGERATMTCTASSSVSSSYFHWYQQKPGQAPRLWIYRTSRLASGVPDRFSGSGSGTDFTLTISRLEPEDAATYYCHQFHRSPLTFGAGTKLEIK
B2: unnamed (protein)
chain 1: B1 chain 1 with N52Y, V56S, R57N, V100R
chain 2: B1 chain 2
B3: unnamed (protein)
chain 1: B1 chain 1 with N52Y, V56S, R57N, V99L, V100R
chain 2: B1 chain 2
B4: unnamed (protein)
chain 1: B1 chain 1 with S28T, S32N, N52Y, V56S, R57N, V100R, Y105W
chain 2: B1 chain 2
B5: unnamed (protein)
chain 1: B1 chain 1 with S28T, N52Y, V56S, R57N, V100Q
chain 2: B1 chain 2
B6: unnamed (protein)
chain 1: B1 chain 1 with N52Y, V56S, R57N, V100Q
chain 2: B1 chain 2
B7: unnamed (protein)
chain 1: B1 chain 1 with S28T, S32N, N52Y, V56S, R57N, V100K
chain 2: B1 chain 2
B8: unnamed (protein)
chain 1: B1 chain 1 with S28T, N52K, V56S, R57N, V100S
chain 2: B1 chain 2
B9: unnamed (protein)
chain 1: B1 chain 1 with S28T, N52Y, V56S, R57N, V99S, V100R
chain 2: B1 chain 2
B10: unnamed (protein)
chain 1: B1 chain 1 with S28T, S32N, N52Y, V56S, R57N, V100R, Y101F, Y105W
chain 2: B1 chain 2
B11: unnamed (protein)
chain 1: B1 chain 1 with V99M, V100R, Y105W
chain 2: B1 chain 2
B12: unnamed (protein)
chain 1: B1 chain 1 with S28T, N52Y, V56S, R57N, V99S, V100R, Y105W
chain 2: B1 chain 2
B13: unnamed (protein)
chain 1: B1 chain 1 with S28T, S32N, N52Y, V56S, R57N, V100R
chain 2: B1 chain 2
B14: unnamed (protein)
chain 1: B1 chain 1 with S28T, S32A, N52Y, V56S, R57N, V100R
chain 2: B1 chain 2
B15: unnamed (protein)
chain 1: B1 chain 1 with S28T, S32N, N52Y, V56S, R57N, V100R, E103Y
chain 2: B1 chain 2
B16: unnamed (protein)
chain 1: B1 chain 1 with S28T, N52Y, V56S, R57N, V100R, Y101F
chain 2: B1 chain 2
B17: unnamed (protein)
chain 1: B1 chain 1 with S28T, S32N, N52Y, V56S, R57N, V100S
chain 2: B1 chain 2
B18: unnamed (protein)
chain 1: B1 chain 1 with S32N, N52Y, V56S, R57N, V100R, Y105W
chain 2: B1 chain 2
B19: unnamed (protein)
chain 1: EVQLVQSGAEVKKPGESLRISCKGSGYSFSTYWISWVRQMPGKGLEWMGKIYPGDSYTNYSPSFQGQVTISADKSISTAYLQWSSLKASDTAMYYCSRGSGIFDYWGQGTLVTVSS
chain 2: SYELTQPPSVSVSPGQTASITCSGDNIGDQYAHWYQQKPGQSPVLVIYQDKNRPSGIPERFSGSNSGNTATLTISGTQAMDEADYYCATYTGFGSLAVFGGGTKLTVL

For one test, the target named is IL36R. Nature of the test: Kd (SPR).
As a reminder, the Kd is the free concentration of one partner at which half of the binding sites on the other are occupied at equilibrium, for simple one-to-one binding. Read a high Kd as weaker binding. In turn, B1 gave a dissociation constant (Kd) of 0.649 nM.
For the molecule B2, the dissociation constant Kd was 0.933 nM.
With B3, the dissociation constant (Kd) is 6.22 nM.
B4: the dissociation constant Kd was found to be 31.8 nM.
Turning to B5, the Kd amounted to 2.76 nM.
Still for that read-out and setting: next, B6: 1.16 nM; B7: 54.3 nM.
In the case of B8, the Kd was found to be 138 nM.
As to B9, the Kd was 38.2 nM.
As to B10, the dissociation constant (Kd) came to 46.1 nM.
In the case of B11, the Kd was determined as 68.3 nM.
Same read-out and setting: the same measure for B12: 157 nM; for B13: 14.6 nM; for B14: 0.757 nM.
In turn, B15 gave a Kd of 1.35 nM.
Same read-out and setting: the same measure for B16: 1.03 nM; for B17: 11 nM; for B18: 3.35 nM.

The target in a further test is TNFRSF9, Q07011. Nature of the test: Kd (SPR).
In turn, B19 gave a Kd of 295 nM.
